Experimental data published in article PMC12480940.

Key:
Assay in all cases: SPR; Biacore T200, 25 °C, pH 5.5 (177 mM phosphate, 85 mM NaCl, 0.005% TWEEN-20); FIX-HSA variants amine-coupled (200 RU) on CM5; soluble His-tagged hFcRn (15.6-2000.0 nM for HSAWT, 1.95-62.5 nM for HSAQMP) or mFcRn (7.8-8000.0 nM for HSAWT, 3.9-500 nM for HSAQMP) injected; 1:1 Langmuir model
PaduaKA-HSAQMP (human) = PaduaKA-HSAQMP (human) (UniProt P02768)
Padua-HSAQMP (human) = molecular target: Padua-HSAQMP (human)
PaduaKR-HSAQMP (human) = PaduaKR-HSAQMP (human) (UniProt P02768)
FIXKA-HSAWT (human) = FIXKA-HSAWT (human) (UniProt P02768)
FIXKR-HSAWT (human) = FIXKR-HSAWT (human) (UniProt P02768)

Kd (PaduaKA-HSAQMP (human)) [nM] | koff (PaduaKA-HSAQMP (human)) [s⁻¹] | Kd (Padua-HSAQMP (human)) [nM] | koff (Padua-HSAQMP (human)) [s⁻¹] | Kd (PaduaKR-HSAQMP (human)) [nM] | koff (PaduaKR-HSAQMP (human)) [s⁻¹] | Kd (FIXKA-HSAWT (human)) [nM] | koff (FIXKA-HSAWT (human)) [s⁻¹] | Kd (FIXKR-HSAWT (human)) [nM] | koff (FIXKR-HSAWT (human)) [s⁻¹] | Substance
51.7 | 0.0028 | 44.6 | 0.00512 | 54.9 | 0.00429 | – | – | – | – | soluble truncated His-tagged mouse neonatal Fc receptor (from UniProt Q61559 22-297; P01887 21-119)
0.2 | 6e-05 | – | – | 0.3 | 7e-05 | 177 | 0.00769 | 190 | 0.00827 | soluble truncated His-tagged human neonatal Fc receptor (from UniProt P55899 24-297; P61769 21-119)
